Measurements published in PMC9482650, “Quantitative fragmentomics allow affinity mapping of interactomes” (Nature Communications, 2022).
Where a chain is given by its changes, count along the chain named.

Legend:
Assay in all cases: holdup assay
Design in all cases: key: below the threshold = too weak to quantify, mostly under pKd 3.1 to 4
[1] = target: T1, MPP7, Q5T2T1
T1 sequence (Q5T2T1 134-230, limits assumed, looked up): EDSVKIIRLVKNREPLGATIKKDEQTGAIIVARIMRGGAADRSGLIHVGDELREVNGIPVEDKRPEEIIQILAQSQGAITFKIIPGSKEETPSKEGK

[2] = target: T2, LIN7B, Q9HAP6
T2 sequence (Q9HAP6 88-185, limits assumed, looked up): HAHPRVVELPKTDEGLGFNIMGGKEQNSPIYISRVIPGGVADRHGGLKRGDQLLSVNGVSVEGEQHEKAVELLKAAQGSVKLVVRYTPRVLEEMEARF

[3] = target: T3, MPDZ_10, O75970
T3 sequence (O75970 1624-1722, limits assumed, looked up): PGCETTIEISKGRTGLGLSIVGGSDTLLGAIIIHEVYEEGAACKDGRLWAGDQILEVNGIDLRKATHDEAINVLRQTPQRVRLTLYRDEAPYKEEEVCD

[4] = target: T4, APBA3_1, O96018
T4 sequence (O96018 389-490, limits assumed, looked up): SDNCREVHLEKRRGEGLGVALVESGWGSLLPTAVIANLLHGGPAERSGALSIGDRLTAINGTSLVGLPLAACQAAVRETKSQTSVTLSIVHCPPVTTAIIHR

[5] = target: T5, LIN7A, O14910
T5 sequence (O14910 103-200, limits assumed, looked up): T2 sequence (Q9HAP6 88-185, limits assumed, looked up) with A2S, I20V, V35I, D42E, Q65H, Q77K, G78D, R89K

[6] = target: Inadl_6, Q8NI35
[7] = target: DLG2_2, Q15700
[8] = target: T6, MPDZ_5, O75970
T6 sequence (O75970 695-796, limits assumed, looked up): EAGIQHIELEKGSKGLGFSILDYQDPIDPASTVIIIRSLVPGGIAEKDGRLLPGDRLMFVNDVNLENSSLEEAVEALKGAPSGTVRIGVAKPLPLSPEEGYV

[9] = target: GRIP2_7, Q9C0E4
[10] = target: TJP2_1, Q9UDY2
[11] = target: T7, CARD11, Q9BXL7
T7 sequence (Q9BXL7 662-765, limits assumed, looked up): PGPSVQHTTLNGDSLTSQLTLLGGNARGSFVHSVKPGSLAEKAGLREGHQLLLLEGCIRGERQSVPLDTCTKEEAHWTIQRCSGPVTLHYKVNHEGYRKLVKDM

[12] = target: T8, PARD3B_1, Q8TEW8
T8 sequence (Q8TEW8 196-299, limits assumed, looked up): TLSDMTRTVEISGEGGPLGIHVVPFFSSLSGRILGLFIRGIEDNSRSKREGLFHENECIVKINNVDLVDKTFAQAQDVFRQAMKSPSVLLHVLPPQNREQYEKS

[13] = target: DLG1_2, Q12959
[14] = target: FRMPD2_3, Q68DX3
[15] = target: T9, GRIP1_4, Q9Y3R0
T9 sequence (Q9Y3R0 467-571, limits assumed, looked up): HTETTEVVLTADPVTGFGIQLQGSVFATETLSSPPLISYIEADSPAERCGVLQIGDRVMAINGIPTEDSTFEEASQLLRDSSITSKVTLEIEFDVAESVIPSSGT

[16] = target: LNX1_2, Q8TBB1
[17] = target: MAGI2_2, Q86UL8
[18] = target: GIPC2, Q8TF65
[19] = target: GRIP2_6, Q9C0E4
[20] = target: T10, GRIP1_5, Q9Y3R0
T10 sequence (Q9Y3R0 568-668, limits assumed, looked up): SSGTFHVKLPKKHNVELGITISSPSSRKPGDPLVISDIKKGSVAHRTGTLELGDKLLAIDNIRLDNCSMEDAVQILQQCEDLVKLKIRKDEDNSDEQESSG

[21] = target: MAGI2_6, Q86UL8
[22] = target: NHERF4_2, Q86UT5
[23] = target: MAGI1_1, Q96QZ7
[24] = target: T11, GRIP1_2, Q9Y3R0
T11 sequence (Q9Y3R0 145-248, limits assumed, looked up): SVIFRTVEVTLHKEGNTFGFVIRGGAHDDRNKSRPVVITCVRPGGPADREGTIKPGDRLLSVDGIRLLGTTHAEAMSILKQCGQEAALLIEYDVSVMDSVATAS

[25] = target: Inadl_8, Q8NI35
[26] = plain residues with an end cap or a label only (N-terminal biotin on a linker: ttds)
[27] = plain residues with an end cap or a label only (N-terminal biotin on a linker: ahx)
[28] = plain residues with an end cap or a label only (N-terminal biotin on a linker: ado-ado)

NHERF4_2, Q86UT5, sequence (Q86UT5 220-308): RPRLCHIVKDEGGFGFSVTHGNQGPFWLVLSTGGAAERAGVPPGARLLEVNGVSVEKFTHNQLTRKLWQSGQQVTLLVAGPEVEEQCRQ
MAGI2_6, Q86UL8, sequence (Q86UL8 1141-1229): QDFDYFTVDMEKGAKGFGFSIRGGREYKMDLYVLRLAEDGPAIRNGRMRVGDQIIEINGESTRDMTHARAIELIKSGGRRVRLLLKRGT
MAGI2_2, Q86UL8, sequence (Q86UL8 410-522): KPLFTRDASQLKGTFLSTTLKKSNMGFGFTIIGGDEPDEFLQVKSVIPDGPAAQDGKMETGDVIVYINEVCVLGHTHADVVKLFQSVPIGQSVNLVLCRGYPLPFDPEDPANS
GRIP2_7, Q9C0E4, sequence (Q9C0E4 934-1023): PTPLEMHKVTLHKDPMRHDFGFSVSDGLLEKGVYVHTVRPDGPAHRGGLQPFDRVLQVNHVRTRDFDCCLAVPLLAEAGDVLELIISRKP
GIPC2, Q8TF65, sequence (Q8TF65 112-203): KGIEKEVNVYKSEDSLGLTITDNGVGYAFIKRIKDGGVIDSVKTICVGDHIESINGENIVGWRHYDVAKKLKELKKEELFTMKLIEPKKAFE
DLG1_2, Q12959, sequence (Q12959 314-412): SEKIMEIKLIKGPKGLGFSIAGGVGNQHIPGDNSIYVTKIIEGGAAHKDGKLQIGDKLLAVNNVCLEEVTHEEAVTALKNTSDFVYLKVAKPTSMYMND
LNX1_2, Q8TBB1, sequence (Q8TBB1 371-470): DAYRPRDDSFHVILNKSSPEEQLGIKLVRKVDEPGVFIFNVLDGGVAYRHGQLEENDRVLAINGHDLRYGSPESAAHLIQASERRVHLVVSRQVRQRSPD
TJP2_1, Q9UDY2, sequence (Q9UDY2 24-128): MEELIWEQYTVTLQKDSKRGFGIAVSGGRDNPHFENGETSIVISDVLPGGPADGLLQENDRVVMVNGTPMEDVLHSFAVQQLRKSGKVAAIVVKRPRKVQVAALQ
Inadl_8, Q8NI35, sequence (Q8NI35 1425-1530): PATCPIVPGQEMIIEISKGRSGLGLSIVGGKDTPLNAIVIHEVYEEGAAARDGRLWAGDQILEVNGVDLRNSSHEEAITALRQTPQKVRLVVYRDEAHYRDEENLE
MAGI1_1, Q96QZ7, sequence (Q96QZ7 1-106): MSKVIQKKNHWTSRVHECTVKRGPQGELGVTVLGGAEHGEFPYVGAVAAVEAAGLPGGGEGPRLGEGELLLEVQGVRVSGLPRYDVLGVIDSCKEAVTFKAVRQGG
Inadl_6, Q8NI35, sequence (Q8NI35 1058-1167): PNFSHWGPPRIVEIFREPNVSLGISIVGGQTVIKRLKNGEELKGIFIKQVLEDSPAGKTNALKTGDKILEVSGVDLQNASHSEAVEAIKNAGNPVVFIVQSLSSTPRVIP
GRIP2_6, Q9C0E4, sequence (Q9C0E4 648-740): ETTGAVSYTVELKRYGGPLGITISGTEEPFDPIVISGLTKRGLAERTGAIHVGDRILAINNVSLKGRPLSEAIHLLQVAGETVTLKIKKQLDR
FRMPD2_3, Q68DX3, sequence (Q68DX3 1073-1166): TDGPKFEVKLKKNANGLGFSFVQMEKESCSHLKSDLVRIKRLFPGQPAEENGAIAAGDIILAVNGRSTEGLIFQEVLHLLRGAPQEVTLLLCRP
DLG2_2, Q15700, sequence (Q15700 189-283): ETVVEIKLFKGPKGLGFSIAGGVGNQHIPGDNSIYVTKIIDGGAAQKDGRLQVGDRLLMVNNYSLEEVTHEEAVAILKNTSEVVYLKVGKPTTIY

B1: PODXL, O00592 (peptide)
chain: DLDEEEDTHL
B1 was tested, and the pKd [1, 26] was “below the threshold”, the pKd [2, 26] was “below the threshold” and the pKd [3, 26] was “below the threshold”. The pKd [4, 26] was “below the threshold”, the pKd [5, 26] was “below the threshold” and the pKd [6, 26] was “below the threshold”. For the same binder, the pKd [7, 26] was “below the threshold”, the pKd [8, 26] was “below the threshold” and the pKd [9, 26] was “below the threshold”. The pKd [10, 26] was “below the threshold”, the pKd [11, 26] was “below the threshold” and the pKd [12, 26] was “below the threshold”. The pKd [13, 26] was “below the threshold”, the pKd [14, 26] was “below the threshold” and the pKd [15, 26] was “below the threshold”. For the same binder, the pKd [16, 26] was “below the threshold”, the pKd [17, 26] was “below the threshold” and the pKd [18, 26] was “below the threshold”. The pKd [19, 26] was “below the threshold”, the pKd [20, 26] was “below the threshold” and the pKd [21, 26] was “below the threshold”. The pKd [22, 26] was “below the threshold”, the pKd [23, 26] was “below the threshold” and the pKd [24, 26] was 3.63. For the same binder, the pKd [25, 26] was “below the threshold”.

B2: MTMR1, Q13613 (peptide)
chain: HSATSVHTSV
With B2 the pKd [1, 27] was “below the threshold”, the pKd [2, 27] was “below the threshold” and the pKd [3, 27] was 3.81. For the same binder, the pKd [4, 27] was “below the threshold”, the pKd [5, 27] was “below the threshold” and the pKd [6, 27] was “below the threshold”. For the same binder, the pKd [7, 27] was 3.88, the pKd [8, 27] was “below the threshold” and the pKd [9, 27] was “below the threshold”. For the same binder, the pKd [10, 27] was “below the threshold”, the pKd [11, 27] was “below the threshold” and the pKd [12, 27] was “below the threshold”. For the same binder, the pKd [13, 27] was 4.9, the pKd [14, 27] was “below the threshold” and the pKd [15, 27] was “below the threshold”. For the same binder, the pKd [16, 27] was “below the threshold”, the pKd [17, 27] was 3.48 and the pKd [18, 27] was “below the threshold”. For the same binder, the pKd [19, 27] was “below the threshold”, the pKd [20, 27] was “below the threshold” and the pKd [21, 27] was 3.66. The pKd [22, 27] was “below the threshold”, the pKd [23, 27] was “below the threshold” and the pKd [24, 27] was “below the threshold”. For the same binder, the pKd [25, 27] was 3.88.

B3: CBY2, Q8NA61 (peptide)
chain: SQDPKKPSRV
For B3, the pKd [1, 28] was “below the threshold”, the pKd [2, 28] was “below the threshold” and the pKd [3, 28] was 3.7. The pKd [4, 28] was “below the threshold”, the pKd [5, 28] was “below the threshold” and the pKd [6, 28] was “below the threshold”. The pKd [7, 28] was “below the threshold”, the pKd [8, 28] was “below the threshold” and the pKd [9, 28] was “below the threshold”. The pKd [10, 28] was “below the threshold”, the pKd [11, 28] was “below the threshold” and the pKd [12, 28] was “below the threshold”. For the same binder, the pKd [13, 28] was “below the threshold”, the pKd [14, 28] was “below the threshold” and the pKd [15, 28] was “below the threshold”. The pKd [16, 28] was “below the threshold”, the pKd [17, 28] was 4.38 and the pKd [18, 28] was “below the threshold”. The pKd [19, 28] was “below the threshold”, the pKd [20, 28] was “below the threshold” and the pKd [21, 28] was “below the threshold”. For the same binder, the pKd [22, 28] was “below the threshold”, the pKd [23, 28] was 3.49 and the pKd [24, 28] was “below the threshold”. The pKd [25, 28] was 4.43.

B4: MAPK12, P53778 (peptide)
chain: GARVSKETPL
B4 was tested, and the pKd [1, 26] was “below the threshold”, the pKd [2, 26] was 3.86 and the pKd [3, 26] was “below the threshold”. The pKd [4, 26] was “below the threshold”, the pKd [5, 26] was “below the threshold” and the pKd [6, 26] was 3.55. For the same binder, the pKd [7, 26] was 4.25, the pKd [8, 26] was “below the threshold” and the pKd [9, 26] was “below the threshold”. For the same binder, the pKd [10, 26] was “below the threshold”, the pKd [11, 26] was “below the threshold” and the pKd [12, 26] was “below the threshold”. The pKd [13, 26] was 4.71, the pKd [14, 26] was “below the threshold” and the pKd [15, 26] was “below the threshold”. For the same binder, the pKd [16, 26] was “below the threshold”, the pKd [17, 26] was 3.83 and the pKd [18, 26] was “below the threshold”. For the same binder, the pKd [19, 26] was “below the threshold”, the pKd [20, 26] was “below the threshold” and the pKd [21, 26] was 3.89. The pKd [22, 26] was “below the threshold”, the pKd [23, 26] was “below the threshold” and the pKd [24, 26] was “below the threshold”. For the same binder, the pKd [25, 26] was “below the threshold”.

B5: DGKI, O75912 (peptide)
chain: IGHEDLETAV
With B5 the pKd [1, 28] was “below the threshold”, the pKd [2, 28] was 4.11 and the pKd [3, 28] was “below the threshold”. The pKd [4, 28] was “below the threshold”, the pKd [5, 28] was 4.07 and the pKd [6, 28] was 4.1. For the same binder, the pKd [7, 28] was 4.71, the pKd [8, 28] was “below the threshold” and the pKd [9, 28] was “below the threshold”. The pKd [10, 28] was “below the threshold”, the pKd [11, 28] was “below the threshold” and the pKd [12, 28] was “below the threshold”. For the same binder, the pKd [13, 28] was 5.11, the pKd [14, 28] was 3.56 and the pKd [15, 28] was “below the threshold”. The pKd [16, 28] was “below the threshold”, the pKd [17, 28] was 3.74 and the pKd [18, 28] was 3.6. The pKd [19, 28] was “below the threshold”, the pKd [20, 28] was “below the threshold” and the pKd [21, 28] was 4.59. For the same binder, the pKd [22, 28] was “below the threshold”, the pKd [23, 28] was “below the threshold” and the pKd [24, 28] was “below the threshold”. The pKd [25, 28] was “below the threshold”.
